{"source": "paper PMC10030265", "about": "“The lipid linked oligosaccharide polymerase Wzy and its regulating co-polymerase, Wzz, from enterobacterial common antigen biosynthesis form a complex” (Open Biology, 2023)", "key": {"[1]": {"biological_target": "WzyEPA-GST-distrepII (Pectobacterium atrosepticum) (UniProt Q6CZF1)", "test": "cryo-EM structure; negative stain and single-particle cryo-EM of the WzyEPA : WzzEPA complex labelled with the IgG anti-strep tag II antibody; model at approximately 20 Å, C2 symmetry, dumbbell of two WzzEPA octamers"}, "WzyEPA-distrepII": {"biological_target": "T1, WzyEPA-distrepII (Pectobacterium atrosepticum, UniProt Q6CZF1 1-463)", "T1 construct": "WzyE, ECA polymerase, Pectobacterium atrosepticum SCRI 1043 (ATCC BAA-672); cloned into a proprietary vector constructed by Huanting Liu; Predicted 57 kDa; the distrepII tag is TEV protease-cleavable; source: DDM-solubilised membranes; not shown: distrepII, C-terminal, kept", "T1 sequence (looked up)": "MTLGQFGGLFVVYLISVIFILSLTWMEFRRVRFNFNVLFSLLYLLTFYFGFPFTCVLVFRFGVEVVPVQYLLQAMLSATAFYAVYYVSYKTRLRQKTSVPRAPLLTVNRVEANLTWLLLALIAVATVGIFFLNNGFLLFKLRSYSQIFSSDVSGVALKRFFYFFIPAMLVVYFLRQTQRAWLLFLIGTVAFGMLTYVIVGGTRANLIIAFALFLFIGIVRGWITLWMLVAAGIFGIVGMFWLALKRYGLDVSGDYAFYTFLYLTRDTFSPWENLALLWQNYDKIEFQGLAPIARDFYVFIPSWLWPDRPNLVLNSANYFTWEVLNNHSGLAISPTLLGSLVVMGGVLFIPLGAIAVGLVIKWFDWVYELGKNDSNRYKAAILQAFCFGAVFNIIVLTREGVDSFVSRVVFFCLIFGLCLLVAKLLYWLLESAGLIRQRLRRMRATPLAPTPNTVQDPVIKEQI", "test": "quantitative immuno-dot blot; serial dilution of the co-purified complex on nitrocellulose, standard curves of each purified protein, HRP-coupled anti-His and anti-strep tag II, chemiluminescence; corrected for untagged Wzz", "conditions": "both partners purified"}, "[2]": {"biological_target": "the molecule itself", "test": "cryo-EM structure; negative stain and single-particle cryo-EM of the WzyEPA : WzzEPA complex labelled with the IgG anti-strep tag II antibody; model at approximately 20 Å, C2 symmetry, dumbbell of two WzzEPA octamers"}, "[3]": {"biological_target": "the molecule itself", "test": "cryo-EM structure; TEV-cleaved, SEC-purified WzzEPA : WzyEPA sample at 5 mg/ml in DDM; Titan Krios; C4 symmetry; 3.6 Å; only WzzEPA seen in the map"}}}
{"molecule": "His6-WzzEPA (from UniProt Q6CZE3 1-348) (natural protein)", "values": [{"measurement": "stoichiometry N (WzzEPA per WzyEPA)", "setting": "[1]", "result": 8}]}
{"molecule": "His6-WzzEPA (natural protein, Pectobacterium atrosepticum, UniProt Q6CZE3 1-348, looked up, WzzE, polysaccharide co-polymerase of enterobacterial common antigen biosynthesis, Pectobacterium atrosepticum SCRI 1043 (ATCC BAA-672); cloned into pEHisTEV; Predicted 42 kDa; His6 tag is TEV protease-cleavable; The methods say that Wzz ran as a double band and that the lower band was not seen by the anti-His antibody (partly untagged); Isolated Wzz may have various oligomeric states; octamer in …) MKSENLSTGNALIDNELDIRGLFRLLWRGKVWPIAIGLLFAVVALGYSYLVKQEWGATSITDKPTVNMLGGYYSQQQFLRNLDARSFSSPQPEQPSISAGAYDEFIMQLAAYDTRRDFWLQTDYYKQRLEGDEKADAALLDELVNNIQFTARDDGKKTNDSVKLVAETSSDSNTLLRQYVVFASQRAANHLNEEIKGAWAARTIFMKSQIKRQEAVAKAIYDREVRSVELALKIAQQQGISRSQTDTPADEIPASEMFLLGRPMLQARLETLQTSGPHYELDYDQNRAMLATLNVGPTLEASFQTYRYLRTPEEPVKRDSPRRAFLMVMWGAIGVLVGAGVALARRLR", "values": [{"measurement": "stoichiometry N", "setting": "WzyEPA-distrepII", "result": "9.6 ± 1.8 His6-WzzEPA : WzyEPA-distrepII (molar ratio)"}, {"measurement": "stoichiometry N", "setting": "[2]", "result": 8, "unit": "subunits in the oligomer"}]}
{"molecule": "WzzEPA (TEV protease cleaved, affinity tag removed) (natural protein, Pectobacterium atrosepticum, UniProt Q6CZE3 1-348, looked up, WzzE, Pectobacterium atrosepticum SCRI 1043; residues I39-V337 modelled, residues 1-39 and 338-348 not visualized; also called full length WzzEPA; source: E. coli C43(DE3), co-expressed with WzyEPA; not shown: His6, N-terminal, cleaved) MKSENLSTGNALIDNELDIRGLFRLLWRGKVWPIAIGLLFAVVALGYSYLVKQEWGATSITDKPTVNMLGGYYSQQQFLRNLDARSFSSPQPEQPSISAGAYDEFIMQLAAYDTRRDFWLQTDYYKQRLEGDEKADAALLDELVNNIQFTARDDGKKTNDSVKLVAETSSDSNTLLRQYVVFASQRAANHLNEEIKGAWAARTIFMKSQIKRQEAVAKAIYDREVRSVELALKIAQQQGISRSQTDTPADEIPASEMFLLGRPMLQARLETLQTSGPHYELDYDQNRAMLATLNVGPTLEASFQTYRYLRTPEEPVKRDSPRRAFLMVMWGAIGVLVGAGVALARRLR", "values": [{"measurement": "stoichiometry N", "setting": "[3]", "result": 8, "unit": "subunits in the oligomer"}]}
